Measurements reported in IntAct's records for PubMed 15350535.

Target: PAK1, Q13153-2
Sequence (Q13153 other isoform, or with tags, fused parts or gaps): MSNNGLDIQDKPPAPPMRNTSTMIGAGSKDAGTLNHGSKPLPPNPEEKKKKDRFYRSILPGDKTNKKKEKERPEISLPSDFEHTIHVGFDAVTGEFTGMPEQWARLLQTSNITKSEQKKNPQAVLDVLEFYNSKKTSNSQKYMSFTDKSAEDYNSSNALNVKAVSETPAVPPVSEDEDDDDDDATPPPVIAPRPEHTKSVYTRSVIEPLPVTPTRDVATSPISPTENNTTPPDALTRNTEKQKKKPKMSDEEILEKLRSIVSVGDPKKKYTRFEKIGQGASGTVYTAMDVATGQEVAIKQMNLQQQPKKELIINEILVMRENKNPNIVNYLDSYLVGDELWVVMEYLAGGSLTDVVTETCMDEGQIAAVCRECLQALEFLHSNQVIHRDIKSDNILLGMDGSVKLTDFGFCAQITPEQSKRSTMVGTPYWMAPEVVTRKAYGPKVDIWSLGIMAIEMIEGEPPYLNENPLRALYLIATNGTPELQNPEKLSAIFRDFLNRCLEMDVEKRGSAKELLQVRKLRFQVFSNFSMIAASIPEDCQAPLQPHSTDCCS

“Rho-related GTP-binding protein RhoU (Homo sapiens), Q7L0Q8 T63N” was tested, and the “effect of a mutation on the interaction” value was “decreasing interaction”.
